Assays:
[1] = target: natural brain APP prepared from human hippocampus, P05067
[2] = target: natural brain APP pretreated with chondroitinase ABC, P05067
[3] = target: synthetic Aβ 1-40, P05067
[4] = target: synthetic Aβ 1-42, P05067

Protein | proteolysis of natural brain APP (Western blot with anti Aβ 1/14 antibody) [1] | proteolysis of chondroitinase ABC-pretreated brain APP [2] | digestion of synthetic Aβ 1-40 (Western blot) [3] | digestion of synthetic Aβ 1-42 (Western blot) [4] | proteolytic activity of native-PAGE fractions for natural brain APP [1]
human brain carboxypeptidase B, 40 kDa protease (prepro-HBCPB) (protein) ASASYYEQYHSLNEIYSWIEFITERHPDMLTKIHIGSSFEKYPLYVLKVSGKEQTAKNAIWIDCGIHAREWISPAFCLWFIGHNRMWRKNRSFYANNHCIGTDLNSNFVSKHWCEEGASSSSCSETYCGLYPESEPEVKAVASFLRRNINQIKAYISMHSYSQHIVFPYSYTRSKSKDHEELSLVASEAVRAIDKTSKNTRYTHGHGSETLYLAPGGGDDWIYDLGIKYSFTSNPPVEKLLPLSLK | the 40 kDa protein degraded natural brain APP, generating a 5.5 kDa fragment as the major component of the 3 to 11 kDa Aβ-containing peptides | it was shown that the reaction is almost completely inhibited | low-molecular weight peptides formed in a dose-dependent manner | low-molecular weight peptides formed in a dose-dependent manner | –
human brain carboxypeptidase B, 30 kDa mature form (protein) ASASYYEQYHSLNEIYSWIEFITERHPDMLTKIHIGSSFEKYPLYVLKVSGKEQTAKNAIWIDCGIHAREWISPAFCLWFIGHNRMWRKNRSFYANNHCIGTDLNRNFASKHWCEEGASSSSCSETYCGLYPESEPEVKAVASFLRRNINQIKAYISMHSYSQHIVFPYSYTRSKSKDHEELSLVASEAVRAIEKTSKNTRYTHGHGSETLYLAPGGGDDWIYDLGIKYSFTSNPPVEKLLPLSLK | – | – | – | – | fraction 19 with a molecular mass of about 40 kDa and fraction 11 with a molecular mass of about 30 kDa had similar proteolytic activities
